Broadly, the Kd is the equilibrium constant for the complex coming apart.

Common to all, as to assay: SPR, antibody captured, C2 as analyte;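 note: biacore SPR at 37 °C, anti-C2 mAbs captured via goat anti-human IgG on CM5 chips, double-referenced sensorgrams fit to a 1:1 kinetic or steady-state model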
For orientation: Surface plasmon resonance follows binding to a sensor surface in real time, without labels.

For one assay, the target named is T1, human C2 A472S (human, UniProt P06681 21-752).
T1 sequence: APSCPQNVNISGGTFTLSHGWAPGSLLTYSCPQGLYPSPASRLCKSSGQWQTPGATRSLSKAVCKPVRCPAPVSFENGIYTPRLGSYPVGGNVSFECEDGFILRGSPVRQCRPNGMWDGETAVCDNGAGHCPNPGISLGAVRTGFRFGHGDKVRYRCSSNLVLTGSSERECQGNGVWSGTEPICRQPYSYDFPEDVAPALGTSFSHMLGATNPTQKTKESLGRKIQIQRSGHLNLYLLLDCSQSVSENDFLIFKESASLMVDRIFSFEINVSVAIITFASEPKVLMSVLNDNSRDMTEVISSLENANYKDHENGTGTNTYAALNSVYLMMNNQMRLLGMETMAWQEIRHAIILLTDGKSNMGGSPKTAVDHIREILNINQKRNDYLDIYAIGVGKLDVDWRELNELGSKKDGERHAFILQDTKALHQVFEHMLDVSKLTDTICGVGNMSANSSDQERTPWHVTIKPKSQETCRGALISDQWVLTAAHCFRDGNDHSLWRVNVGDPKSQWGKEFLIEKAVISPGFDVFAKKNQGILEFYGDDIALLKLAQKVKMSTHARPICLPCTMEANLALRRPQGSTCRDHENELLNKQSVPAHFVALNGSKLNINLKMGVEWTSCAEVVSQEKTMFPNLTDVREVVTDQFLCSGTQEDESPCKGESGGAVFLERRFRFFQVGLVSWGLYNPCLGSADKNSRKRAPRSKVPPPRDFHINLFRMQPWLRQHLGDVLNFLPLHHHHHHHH

A further assay deals with T2, human C2 N467A (human, UniProt P06681 21-752).
T2 sequence: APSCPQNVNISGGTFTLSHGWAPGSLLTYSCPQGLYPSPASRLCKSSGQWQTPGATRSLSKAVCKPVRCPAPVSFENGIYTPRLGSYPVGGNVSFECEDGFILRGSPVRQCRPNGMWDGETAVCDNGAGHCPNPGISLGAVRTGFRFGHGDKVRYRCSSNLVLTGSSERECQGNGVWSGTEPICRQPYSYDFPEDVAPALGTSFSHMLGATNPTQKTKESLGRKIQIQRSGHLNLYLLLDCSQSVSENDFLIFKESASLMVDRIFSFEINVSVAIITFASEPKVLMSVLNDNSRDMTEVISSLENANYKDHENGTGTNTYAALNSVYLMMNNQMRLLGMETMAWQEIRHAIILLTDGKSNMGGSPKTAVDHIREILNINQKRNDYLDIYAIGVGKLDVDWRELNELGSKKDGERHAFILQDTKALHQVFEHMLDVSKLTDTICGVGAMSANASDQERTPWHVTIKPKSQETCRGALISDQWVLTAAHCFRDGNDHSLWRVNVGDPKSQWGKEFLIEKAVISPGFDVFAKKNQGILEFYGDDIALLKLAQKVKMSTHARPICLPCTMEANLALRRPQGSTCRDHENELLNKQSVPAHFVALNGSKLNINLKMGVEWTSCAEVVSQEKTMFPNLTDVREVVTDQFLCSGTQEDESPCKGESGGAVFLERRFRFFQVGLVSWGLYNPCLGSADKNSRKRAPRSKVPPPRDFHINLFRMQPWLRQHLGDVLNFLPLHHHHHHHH

The target of a further assay is T3, human C2 T647A (human, UniProt P06681 21-752).
T3 sequence: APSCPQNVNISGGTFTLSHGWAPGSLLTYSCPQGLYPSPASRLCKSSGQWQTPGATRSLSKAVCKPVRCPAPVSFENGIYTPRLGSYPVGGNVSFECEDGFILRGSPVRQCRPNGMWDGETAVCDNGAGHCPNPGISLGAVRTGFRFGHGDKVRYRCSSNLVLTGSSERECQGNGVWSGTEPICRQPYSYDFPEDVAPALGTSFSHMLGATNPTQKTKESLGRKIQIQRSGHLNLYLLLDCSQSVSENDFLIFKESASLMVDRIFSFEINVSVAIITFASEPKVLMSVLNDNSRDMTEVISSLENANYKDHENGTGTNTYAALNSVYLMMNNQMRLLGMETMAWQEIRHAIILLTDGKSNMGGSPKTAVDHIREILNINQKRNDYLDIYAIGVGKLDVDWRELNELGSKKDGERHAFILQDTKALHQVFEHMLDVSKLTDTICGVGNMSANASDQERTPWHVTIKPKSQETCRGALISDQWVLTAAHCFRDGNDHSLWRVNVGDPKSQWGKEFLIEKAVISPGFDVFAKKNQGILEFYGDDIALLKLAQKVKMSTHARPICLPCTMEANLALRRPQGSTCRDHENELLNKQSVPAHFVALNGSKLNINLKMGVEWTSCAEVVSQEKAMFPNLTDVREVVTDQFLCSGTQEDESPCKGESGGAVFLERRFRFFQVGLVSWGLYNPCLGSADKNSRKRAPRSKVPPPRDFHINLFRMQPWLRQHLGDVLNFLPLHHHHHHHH

Another assay concerns the target T4, human C2 I320A (human, UniProt P06681 21-752).
T4 sequence: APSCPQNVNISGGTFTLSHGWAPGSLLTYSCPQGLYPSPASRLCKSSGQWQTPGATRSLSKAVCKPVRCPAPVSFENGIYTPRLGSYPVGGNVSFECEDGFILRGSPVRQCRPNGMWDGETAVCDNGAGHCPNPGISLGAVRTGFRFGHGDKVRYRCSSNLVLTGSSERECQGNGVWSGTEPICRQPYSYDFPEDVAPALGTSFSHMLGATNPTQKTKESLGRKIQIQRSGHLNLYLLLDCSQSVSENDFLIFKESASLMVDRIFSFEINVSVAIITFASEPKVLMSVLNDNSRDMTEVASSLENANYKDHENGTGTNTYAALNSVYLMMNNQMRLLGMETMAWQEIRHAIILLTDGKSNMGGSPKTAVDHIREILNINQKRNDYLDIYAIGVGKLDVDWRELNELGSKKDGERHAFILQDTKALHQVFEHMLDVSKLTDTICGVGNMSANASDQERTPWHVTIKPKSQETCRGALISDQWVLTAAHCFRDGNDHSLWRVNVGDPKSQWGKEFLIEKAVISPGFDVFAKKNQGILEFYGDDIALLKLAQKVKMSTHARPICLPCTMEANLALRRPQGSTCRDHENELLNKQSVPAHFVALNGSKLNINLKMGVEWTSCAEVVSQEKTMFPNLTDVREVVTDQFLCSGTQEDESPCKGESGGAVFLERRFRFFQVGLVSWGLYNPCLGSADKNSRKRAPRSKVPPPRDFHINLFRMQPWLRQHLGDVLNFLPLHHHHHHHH

B1: RF16-226 (antibody, human IgG4 S228P, lambda)
heavy: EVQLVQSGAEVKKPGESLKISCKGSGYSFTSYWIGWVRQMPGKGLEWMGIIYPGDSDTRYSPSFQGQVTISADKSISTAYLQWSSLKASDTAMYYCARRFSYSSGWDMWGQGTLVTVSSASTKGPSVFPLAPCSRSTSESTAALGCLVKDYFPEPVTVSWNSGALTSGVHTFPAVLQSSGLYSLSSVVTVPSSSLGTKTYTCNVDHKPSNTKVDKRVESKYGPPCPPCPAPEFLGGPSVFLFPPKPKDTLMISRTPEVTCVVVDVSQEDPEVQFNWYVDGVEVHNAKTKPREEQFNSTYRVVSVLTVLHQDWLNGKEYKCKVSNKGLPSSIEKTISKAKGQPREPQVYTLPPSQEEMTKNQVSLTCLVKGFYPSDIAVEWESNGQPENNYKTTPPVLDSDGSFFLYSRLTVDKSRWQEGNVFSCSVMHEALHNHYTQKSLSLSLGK
light: SYELTQPPSVSVSPGQTARITCSGDALTSKYVAWYQQKSGLAPLLVIYEDTRRPSGIPAKFSGSSSGSVATLTISGAHGDDEADYYCYSTDASGHQRVFGGGTKLTVLSQPKAAPSVTLFPPSSEELQANKATLVCLISDFYPGAVTVAWKADGSPVKAGVETTKPSKQSNNKYAASSYLSLTPEQWKSHRSYSCQVTHEGSTVEKTVAPTECS
notes: pH-dependent anti-C2 antibody from a phage display library; also called WT
B1: the Kd stood at 53 nM in the assay with human C2 A472S, 19.7 nM with human C2 N467A, 147 nM with human C2 T647A and 116 nM in the assay with human C2 I320A.

These data come from US20220332804A1 (CSL INNOVATION, published 2022).
